*1 amine or outer side, *2 acyl side, *3 side chain or, on linkers, in order; H or OH if unused. Where no end group is shown, it is not given here. Side-chain parts run from the residue outwards. [ ]: non-standard residue; d: D form. The star is where a group is joined. C18 diacid = O=C(O)CCCCCCCCCCCCCCCCC(=O)*; γGlu = O=C(O)[C@H](CCC(=O)[*:2])N[*:1]; NMeI = CC[C@H](C)[C@H](NC)C(=O)O; Nva = CCC[C@H](N)C(=O)O; Abu = CC[C@H](N)C(=O)O; Pentanoyl = CCCCC(=O)*; AEEA = NCCOCCOCC(=O)O; Aib = CC(C)(N)C(=O)O
Key:
CRF1R receptor = target: T1, CRF1R receptor (UniProt P34998 24-415, limits assumed); test: cell-based or functional assay
T1 sequence (looked up): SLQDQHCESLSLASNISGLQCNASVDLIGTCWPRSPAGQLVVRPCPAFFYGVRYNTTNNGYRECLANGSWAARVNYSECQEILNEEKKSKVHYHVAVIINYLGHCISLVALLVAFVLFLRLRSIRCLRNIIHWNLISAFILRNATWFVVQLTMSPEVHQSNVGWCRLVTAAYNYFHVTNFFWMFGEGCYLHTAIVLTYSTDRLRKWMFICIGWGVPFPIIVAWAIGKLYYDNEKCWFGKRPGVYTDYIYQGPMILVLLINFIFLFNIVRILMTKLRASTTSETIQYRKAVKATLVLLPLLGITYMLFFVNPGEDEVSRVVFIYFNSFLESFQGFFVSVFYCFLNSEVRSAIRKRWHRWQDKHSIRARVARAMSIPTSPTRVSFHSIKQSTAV

[1] = target: human corticotropin-releasing factor 2a (CRF2a receptor) (human), Q13324; test: cell-based or functional assay
Chain of human corticotropin-releasing factor 2a (CRF2a receptor) (human), Q13324 (Q13324 20-411): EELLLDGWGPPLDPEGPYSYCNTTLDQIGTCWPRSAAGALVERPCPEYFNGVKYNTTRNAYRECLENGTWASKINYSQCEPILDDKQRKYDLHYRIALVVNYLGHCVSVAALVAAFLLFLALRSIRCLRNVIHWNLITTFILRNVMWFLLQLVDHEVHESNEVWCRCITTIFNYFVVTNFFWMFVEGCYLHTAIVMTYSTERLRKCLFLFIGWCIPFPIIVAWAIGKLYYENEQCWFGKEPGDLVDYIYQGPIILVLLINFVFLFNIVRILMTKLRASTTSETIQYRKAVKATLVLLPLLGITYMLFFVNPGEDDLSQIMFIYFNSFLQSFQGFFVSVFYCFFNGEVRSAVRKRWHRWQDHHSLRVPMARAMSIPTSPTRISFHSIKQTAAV

B1: SEQ ID NO 100 (peptide)
peptide: Ac-IVLSLD[dV]PIKLK([AEEA-AEEA-γGlu-C18 diacid])KILLEQEKQKKQREQAETNAQILAQV-NH2
SMILES: CC[C@H](C)[C@H](NC(C)=O)C(=O)N[C@H](C(=O)N[C@@H](CC(C)C)C(=O)N[C@@H](CO)C(=O)N[C@@H](CC(C)C)C(=O)N[C@@H](CC(=O)O)C(=O)N[C@@H](C(=O)N1CCC[C@H]1C(=O)N[C@H](C(=O)N[C@@H](CCCCN)C(=O)N[C@@H](CC(C)C)C(=O)N[C@@H](CCCCNC(=O)COCCOCCNC(=O)COCCOCCNC(=O)CC[C@H](NC(=O)CCCCCCCCCCCCCCCCC(=O)O)C(=O)O)C(=O)N[C@@H](CCCCN)C(=O)N[C@H](C(=O)N[C@@H](CC(C)C)C(=O)N[C@@H](CC(C)C)C(=O)N[C@@H](CCC(=O)O)C(=O)N[C@@H](CCC(N)=O)C(=O)N[C@@H](CCC(=O)O)C(=O)N[C@@H](CCCCN)C(=O)N[C@@H](CCC(N)=O)C(=O)N[C@@H](CCCCN)C(=O)N[C@@H](CCCCN)C(=O)N[C@@H](CCC(N)=O)C(=O)N[C@@H](CCCNC(=N)N)C(=O)N[C@@H](CCC(=O)O)C(=O)N[C@@H](CCC(N)=O)C(=O)N[C@@H](C)C(=O)N[C@@H](CCC(=O)O)C(=O)N[C@H](C(=O)N[C@@H](CC(N)=O)C(=O)N[C@@H](C)C(=O)N[C@@H](CCC(N)=O)C(=O)N[C@H](C(=O)N[C@@H](CC(C)C)C(=O)N[C@@H](C)C(=O)N[C@@H](CCC(N)=O)C(=O)N[C@H](C(N)=O)C(C)C)[C@@H](C)CC)[C@@H](C)O)[C@@H](C)CC)[C@@H](C)CC)C(C)C)C(C)C
Question: For B1, which “Emax (% I)” value (CRF1R receptor) is on record?
Answer: The value was 8%.

Question: What about the EC50 [nM] (cAMP) [1] of the same binder?
Answer: The EC50 [nM] (cAMP) was 0.41 nM.

B2: SEQ ID NO 104 (peptide)
peptide: Ac-IVLSLD[dV]PIKLK([AEEA-AEEA-γGlu-C18 diacid])KILLEQEKQKKQREQAETN[Abu]QILAQV-NH2
SMILES: CC[C@H](NC(=O)[C@H](CC(N)=O)NC(=O)[C@@H](NC(=O)[C@H](CCC(=O)O)NC(=O)[C@H](C)NC(=O)[C@H](CCC(N)=O)NC(=O)[C@H](CCC(=O)O)NC(=O)[C@H](CCCNC(=N)N)NC(=O)[C@H](CCC(N)=O)NC(=O)[C@H](CCCCN)NC(=O)[C@H](CCCCN)NC(=O)[C@H](CCC(N)=O)NC(=O)[C@H](CCCCN)NC(=O)[C@H](CCC(=O)O)NC(=O)[C@H](CCC(N)=O)NC(=O)[C@H](CCC(=O)O)NC(=O)[C@H](CC(C)C)NC(=O)[C@H](CC(C)C)NC(=O)[C@@H](NC(=O)[C@H](CCCCN)NC(=O)[C@H](CCCCNC(=O)COCCOCCNC(=O)COCCOCCNC(=O)CC[C@H](NC(=O)CCCCCCCCCCCCCCCCC(=O)O)C(=O)O)NC(=O)[C@H](CC(C)C)NC(=O)[C@H](CCCCN)NC(=O)[C@@H](NC(=O)[C@@H]1CCCN1C(=O)[C@H](NC(=O)[C@H](CC(=O)O)NC(=O)[C@H](CC(C)C)NC(=O)[C@H](CO)NC(=O)[C@H](CC(C)C)NC(=O)[C@@H](NC(=O)[C@@H](NC(C)=O)[C@@H](C)CC)C(C)C)C(C)C)[C@@H](C)CC)[C@@H](C)CC)[C@@H](C)O)C(=O)N[C@@H](CCC(N)=O)C(=O)N[C@H](C(=O)N[C@@H](CC(C)C)C(=O)N[C@@H](C)C(=O)N[C@@H](CCC(N)=O)C(=O)N[C@H](C(N)=O)C(C)C)[C@@H](C)CC
Question: How did the “Emax (% I)” value (CRF1R receptor) turn out when B2 was run?
Answer: The value was 5%.

Question: And the EC50 [nM] (cAMP) [1]?
Answer: The EC50 [nM] (cAMP) was 0.47 nM.

B3: SEQ ID NO 105 (peptide)
peptide: Ac-IVLSLD[dV]PIKLK([AEEA-AEEA-γGlu-C18 diacid])KILLEQEKQKKQREQAETN[Nva]QILAQV-NH2
SMILES: CCC[C@H](NC(=O)[C@H](CC(N)=O)NC(=O)[C@@H](NC(=O)[C@H](CCC(=O)O)NC(=O)[C@H](C)NC(=O)[C@H](CCC(N)=O)NC(=O)[C@H](CCC(=O)O)NC(=O)[C@H](CCCNC(=N)N)NC(=O)[C@H](CCC(N)=O)NC(=O)[C@H](CCCCN)NC(=O)[C@H](CCCCN)NC(=O)[C@H](CCC(N)=O)NC(=O)[C@H](CCCCN)NC(=O)[C@H](CCC(=O)O)NC(=O)[C@H](CCC(N)=O)NC(=O)[C@H](CCC(=O)O)NC(=O)[C@H](CC(C)C)NC(=O)[C@H](CC(C)C)NC(=O)[C@@H](NC(=O)[C@H](CCCCN)NC(=O)[C@H](CCCCNC(=O)COCCOCCNC(=O)COCCOCCNC(=O)CC[C@H](NC(=O)CCCCCCCCCCCCCCCCC(=O)O)C(=O)O)NC(=O)[C@H](CC(C)C)NC(=O)[C@H](CCCCN)NC(=O)[C@@H](NC(=O)[C@@H]1CCCN1C(=O)[C@H](NC(=O)[C@H](CC(=O)O)NC(=O)[C@H](CC(C)C)NC(=O)[C@H](CO)NC(=O)[C@H](CC(C)C)NC(=O)[C@@H](NC(=O)[C@@H](NC(C)=O)[C@@H](C)CC)C(C)C)C(C)C)[C@@H](C)CC)[C@@H](C)CC)[C@@H](C)O)C(=O)N[C@@H](CCC(N)=O)C(=O)N[C@H](C(=O)N[C@@H](CC(C)C)C(=O)N[C@@H](C)C(=O)N[C@@H](CCC(N)=O)C(=O)N[C@H](C(N)=O)C(C)C)[C@@H](C)CC
Question: B3 was tested. Which “Emax (% I)” value (CRF1R receptor) did it give?
Answer: Its value is 10%.

Question: And the EC50 [nM] (cAMP) [1]?
Answer: Its EC50 [nM] (cAMP) is 0.87 nM.

B4: SEQ ID NO 113 (peptide)
peptide: [NMeI]VLSLD[dV]PIKLK([AEEA-AEEA-γGlu-C18 diacid])KILLEQEKQKKQREQAETNAQILAQV-NH2
modifications: N-terminus assumed
SMILES: CC[C@H](C)[C@H](NC)C(=O)N[C@H](C(=O)N[C@@H](CC(C)C)C(=O)N[C@@H](CO)C(=O)N[C@@H](CC(C)C)C(=O)N[C@@H](CC(=O)O)C(=O)N[C@@H](C(=O)N1CCC[C@H]1C(=O)N[C@H](C(=O)N[C@@H](CCCCN)C(=O)N[C@@H](CC(C)C)C(=O)N[C@@H](CCCCNC(=O)COCCOCCNC(=O)COCCOCCNC(=O)CC[C@H](NC(=O)CCCCCCCCCCCCCCCCC(=O)O)C(=O)O)C(=O)N[C@@H](CCCCN)C(=O)N[C@H](C(=O)N[C@@H](CC(C)C)C(=O)N[C@@H](CC(C)C)C(=O)N[C@@H](CCC(=O)O)C(=O)N[C@@H](CCC(N)=O)C(=O)N[C@@H](CCC(=O)O)C(=O)N[C@@H](CCCCN)C(=O)N[C@@H](CCC(N)=O)C(=O)N[C@@H](CCCCN)C(=O)N[C@@H](CCCCN)C(=O)N[C@@H](CCC(N)=O)C(=O)N[C@@H](CCCNC(=N)N)C(=O)N[C@@H](CCC(=O)O)C(=O)N[C@@H](CCC(N)=O)C(=O)N[C@@H](C)C(=O)N[C@@H](CCC(=O)O)C(=O)N[C@H](C(=O)N[C@@H](CC(N)=O)C(=O)N[C@@H](C)C(=O)N[C@@H](CCC(N)=O)C(=O)N[C@H](C(=O)N[C@@H](CC(C)C)C(=O)N[C@@H](C)C(=O)N[C@@H](CCC(N)=O)C(=O)N[C@H](C(N)=O)C(C)C)[C@@H](C)CC)[C@@H](C)O)[C@@H](C)CC)[C@@H](C)CC)C(C)C)C(C)C
Question: B4 was tested. Which “Emax (% I)” value (CRF1R receptor) did it give?
Answer: The value was 6%.

Question: And the EC50 [nM] (cAMP) [1]?
Answer: The EC50 [nM] (cAMP) was 0.35 nM.

B5: SEQ ID NO 122 (peptide)
peptide: Pentanoyl-VLSLD[dV]PIKLK([AEEA-AEEA-γGlu-C18 diacid])KILLEQEKQKKQREQAETNAQILAQV-NH2
SMILES: CCCCC(=O)N[C@H](C(=O)N[C@@H](CC(C)C)C(=O)N[C@@H](CO)C(=O)N[C@@H](CC(C)C)C(=O)N[C@@H](CC(=O)O)C(=O)N[C@@H](C(=O)N1CCC[C@H]1C(=O)N[C@H](C(=O)N[C@@H](CCCCN)C(=O)N[C@@H](CC(C)C)C(=O)N[C@@H](CCCCNC(=O)COCCOCCNC(=O)COCCOCCNC(=O)CC[C@H](NC(=O)CCCCCCCCCCCCCCCCC(=O)O)C(=O)O)C(=O)N[C@@H](CCCCN)C(=O)N[C@H](C(=O)N[C@@H](CC(C)C)C(=O)N[C@@H](CC(C)C)C(=O)N[C@@H](CCC(=O)O)C(=O)N[C@@H](CCC(N)=O)C(=O)N[C@@H](CCC(=O)O)C(=O)N[C@@H](CCCCN)C(=O)N[C@@H](CCC(N)=O)C(=O)N[C@@H](CCCCN)C(=O)N[C@@H](CCCCN)C(=O)N[C@@H](CCC(N)=O)C(=O)N[C@@H](CCCNC(=N)N)C(=O)N[C@@H](CCC(=O)O)C(=O)N[C@@H](CCC(N)=O)C(=O)N[C@@H](C)C(=O)N[C@@H](CCC(=O)O)C(=O)N[C@H](C(=O)N[C@@H](CC(N)=O)C(=O)N[C@@H](C)C(=O)N[C@@H](CCC(N)=O)C(=O)N[C@H](C(=O)N[C@@H](CC(C)C)C(=O)N[C@@H](C)C(=O)N[C@@H](CCC(N)=O)C(=O)N[C@H](C(N)=O)C(C)C)[C@@H](C)CC)[C@@H](C)O)[C@@H](C)CC)[C@@H](C)CC)C(C)C)C(C)C
Question: For B5, which “Emax (% I)” value (CRF1R receptor) is on record?
Answer: Its value is 5%.

Question: And the EC50 [nM] (cAMP) [1]?
Answer: The EC50 [nM] (cAMP) was 0.67 nM.

B6: SEQ ID NO 30 (peptide)
peptide: Ac-IVLSLD[dV]PIKLK([AEEA-AEEA-γGlu-γGlu-C18 diacid])QILLKQERQKKQREQAEKN[Aib]QILEQV-NH2
SMILES: CC[C@H](C)[C@H](NC(C)=O)C(=O)N[C@H](C(=O)N[C@@H](CC(C)C)C(=O)N[C@@H](CO)C(=O)N[C@@H](CC(C)C)C(=O)N[C@@H](CC(=O)O)C(=O)N[C@@H](C(=O)N1CCC[C@H]1C(=O)N[C@H](C(=O)N[C@@H](CCCCN)C(=O)N[C@@H](CC(C)C)C(=O)N[C@@H](CCCCNC(=O)COCCOCCNC(=O)COCCOCCNC(=O)CC[C@H](NC(=O)CC[C@H](NC(=O)CCCCCCCCCCCCCCCCC(=O)O)C(=O)O)C(=O)O)C(=O)N[C@@H](CCC(N)=O)C(=O)N[C@H](C(=O)N[C@@H](CC(C)C)C(=O)N[C@@H](CC(C)C)C(=O)N[C@@H](CCCCN)C(=O)N[C@@H](CCC(N)=O)C(=O)N[C@@H](CCC(=O)O)C(=O)N[C@@H](CCCNC(=N)N)C(=O)N[C@@H](CCC(N)=O)C(=O)N[C@@H](CCCCN)C(=O)N[C@@H](CCCCN)C(=O)N[C@@H](CCC(N)=O)C(=O)N[C@@H](CCCNC(=N)N)C(=O)N[C@@H](CCC(=O)O)C(=O)N[C@@H](CCC(N)=O)C(=O)N[C@@H](C)C(=O)N[C@@H](CCC(=O)O)C(=O)N[C@@H](CCCCN)C(=O)N[C@@H](CC(N)=O)C(=O)NC(C)(C)C(=O)N[C@@H](CCC(N)=O)C(=O)N[C@H](C(=O)N[C@@H](CC(C)C)C(=O)N[C@@H](CCC(=O)O)C(=O)N[C@@H](CCC(N)=O)C(=O)N[C@H](C(N)=O)C(C)C)[C@@H](C)CC)[C@@H](C)CC)[C@@H](C)CC)C(C)C)C(C)C
Question: B6 was tested. Which “EC50” value (CRF1R receptor) did it give?
Answer: The value was over 250 nM.

Question: And the “Emax (% I)” value (CRF1R receptor)?
Answer: The value was 15%.

Question: And the EC50 [nM] (cAMP) [1]?
Answer: Its EC50 [nM] (cAMP) is 0.29 nM.

Reference: patent publication US20260001928A1 (CORTERIA PHARMACEUTICALS, priority 2022, published 2026)
